The record followed here is IntAct's records for PubMed 10413501.

B1: Ribonuclease inhibitor (Homo sapiens), P13489 (parent)
chain: MSLDIQSLDIQCEELSDARWAELLPLLQQCQVVRLDDCGLTEARCKDISSALRVNPALAELNLRSNELGDVGVHCVLQGLQTPSCKIQKLSLQNCCLTGAGCGVLSSTLRTLPTLQELHLSDNLLGDAGLQLLCEGLLDPQCRLEKLQLEYCSLSAASCEPLASVLRAKPDFKELTVSNNDINEAGVRVLCQGLKDSPCQLEALKLESCGVTSDNCRDLCGIVASKASLRELALGSNKLGDVGMAELCPGLLHPSSRLRTLWIWECGITAKGCGDLCRVLRAKESLKELSLAGNELGDEGARLLCETLLEPGCQLESLWVKSCSFTAACCSHFSSVLAQNRFLLELQISNNRLEDAGVRELCQGLGQPGSVLRVLWLADCDVSDSSCSSLAATLLANHSLRELDLSNNCLGDAGILQLVESVRQPGCLLEQLVLYDIYWSEEMEDRLQALEKDKPSLRVIS

Variants of B1 are the subject of the first assay. To be noted: with rnas1_bovin RNASE1, P61823.
rnas1_bovin RNASE1, P61823, sequence (P61823 whole entry): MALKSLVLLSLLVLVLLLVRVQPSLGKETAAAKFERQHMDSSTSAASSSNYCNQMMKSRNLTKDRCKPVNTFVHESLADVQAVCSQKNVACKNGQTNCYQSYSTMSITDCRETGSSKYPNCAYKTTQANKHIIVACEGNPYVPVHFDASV
For MSLDIQSLDIQCEELSDARWAELLPLLQQCQVVRLDDCGLTEARCKDISSALRVNPALAELNLRSNELGDVGVHCVLQGLQTPSCKIQKLSLQNCCLTGAGCGVLSSTLRTLPTLQELHLSDNLLGDAGLQLLCEGLLDPQCRLEKLQLEYCSLSAASCEPLASVLRAKPDFKELTVSNNDINEAGVRVLCQGLKDSPCQLEALKLESCGVTSDNCRDLCGIVASKASLRELALGSNKLGDVGMAELCPGLLHPSSRLRTLWIWECGITAKGCGDLCRVLRAKESLKELSLAGNELGDEGARLLCETLLEPGCQLESLWVKSCSFTAACCSHFSSVLAQNRFLLELQISNNRLEDAGVRELCQGLGQPGSVLRVLWLADCDVSDSSCSSLAATLLANHSLRELDLSNNCLGDAGILQLVESVRQPGCLLEQLVLYDIFWSEEMEDRLQALEKDKPSLRVIS [Y438F], the “effect of a mutation on the interaction” value is “decreasing interaction”.

A further assay covers variants of B1. As to conditions: with rnas1_bovin RNASE1, P61823. The source holds these as a separate data set.
Consider MSLDIQSLDIQCEELSDARWAELLPLLQQCQVVRLDDCGLTEARCKDISSALRVNPALAELNLRSNELGDVGVHCVLQGLQTPSCKIQKLSLQNCCLTGAGCGVLSSTLRTLPTLQELHLSDNLLGDAGLQLLCEGLLDPQCRLEKLQLEYCSLSAASCEPLASVLRAKPDFKELTVSNNDINEAGVRVLCQGLKDSPCQLEALKLESCGVTSDNCRDLCGIVASKASLRELALGSNKLGDVGMAELCPGLLHPSSRLRTLWIWECGITAKGCGDLCRVLRAKESLKELSLAGNELGDEGARLLCETLLEPGCQLESLWVKSCSFTAACCSHFSSVLAQNRFLLELQISNNRLEDAGVRELCQGLGQPGSVLRVLWLADCDVSDSSCSSLAATLLANHSLRELDLSNNCLGDAGILQLVESVRQPGCLLEQLVLFDIYWSEEMEDRLQALEKDKPSLRVIS [Y435F], for which the “effect of a mutation on the interaction” value is reported as “decreasing interaction”.
